1 molecule from patent US20230121197A1, “ANTIBODIES SPECIFICALLY BINDING THE CARBOXYMETHYLATED CATALYTIC SUBUNIT OF PROTEIN PHOSPHATASE 2A” (Medizinische Universität Wien, priority 2020, published 2023) can be followed below.

Test [1] has as its target T1, PP6c peptides L305, meL305 (Homo sapiens, UniProt O00743).
T1 construct: carboxymethylated versus non-methylated PP2Ac, PP4c and PP6c C-terminal undecapeptides
The test can be described thus: ELISA with PP6c C-terminal undecapeptides. Format: binding. How it is done: To further characterize the carboxymethyl-PP2Ac specificity of monoclonal antibody 7C10-C5 ELISAs were performed on carboxymethylated versus non-methylated PP2Ac, PP4c and PP6c C-terminal undecapeptides.
Specifically, flat-bottom Nunc-Immuno Medisorp 96-well ELISA plates (Thermo; 467320) were coated o/n at 4° C. with 50 μl of either a peptide of the sequence ac-HVTRRTPDYFL-OH (L309) (SEQ ID NO:18) at a concentration of 2 μg/ml in TBS (137 mM NaCl (AppliChem, #131659, 2.7 mM KCl (AppliChem, #131494), 24.8 mM Tris (AppliChem, #A1086), pH 7.4 with HCl), a peptide of the sequence ac-HVTRRTPDYFL-CH3 (meL309) (SEQ ID NO:18) 2 μg/ml in TBS, with a peptide of the sequence (ac-PSKKPVADYFL (L307) (SEQ ID NO:20) at a concentration of 2 μg/ml in TBS or with a peptide of the sequence ac-PSKKPVADYFL-CH3 (meL307) (SEQ ID NO:20) at a concentration of 2 μg/ml in TBS, with a peptide of the sequence ac-IPPRTTTPYFL (L305) (SEQ ID NO:22) at a concentration of 2 μg/ml in TBS or with a peptide of the sequence ac-IPPRTTTPYFL-CH3 (meL305) (SEQ ID NO:22) at a concentration of 2 μg/ml in TBS. […] Bound antibodies were detected colorimetrically by addition of 50 μl of 33 μg/ml […] (TMB) (Sigma, T2885) in 0.1 M sodium acetate pH 6.0 and 0.01% H2O2 (Sigma, H1009). […] The results from 560 nm read were subtracted from the 450 nm read.
For orientation: In an ELISA, binding on a coated surface is turned into a signal by an enzyme label.

The target in test [2] is α-carboxymethylated PP2Ac (Homo sapiens, UniProt P67775). The test can be described thus: IHC tissue microarray analysis of localized and metastatic prostate cancer tissue, Allred scoring. More on the design: IHC tissue microarray analyses of prostate cancer tissue with the 7C10-C5 antibody; from tissue; host or cells: localized and metastatic prostate cancer tissue (tissue microarray, FFPE). The protocol: Immunohistochemical staining was performed on the DAKO Autostainer (DAKO, Carpinteria, Calif.) using Envision+ or liquid streptavidin-biotin and diaminobenzadine (DAB) as the chromogen. De-paraffinized sections were labeled with mouse monoclonal antibody 7C10-C5 (1:200) overnight at 4 C. Microwave 10 mM Tris HCl, pH9 containing 1 mM EDTA epitope retrieval was used prior to staining. Appropriate negative (no primary antibody) and positive controls (pancreas) were stained in parallel with each set of slides studied. Peptide competition studies were performed using 2 peptides ([…]*) (SEQ ID NO:115) differing in the methylation status at position L (marked with a *); FIG. 13E: Peptides were incubated at ambient temperature for 60 mins at 10-1000× molar ratios before being applied to the slide. FIG. 13F: Before being stained, slides were incubated in freshly made 200 mM NaOH for 10 mins at 4° C. and then neutralized by several washes in TBST.
α-carboxymethylated PP2Ac, sequence (P67775 whole entry): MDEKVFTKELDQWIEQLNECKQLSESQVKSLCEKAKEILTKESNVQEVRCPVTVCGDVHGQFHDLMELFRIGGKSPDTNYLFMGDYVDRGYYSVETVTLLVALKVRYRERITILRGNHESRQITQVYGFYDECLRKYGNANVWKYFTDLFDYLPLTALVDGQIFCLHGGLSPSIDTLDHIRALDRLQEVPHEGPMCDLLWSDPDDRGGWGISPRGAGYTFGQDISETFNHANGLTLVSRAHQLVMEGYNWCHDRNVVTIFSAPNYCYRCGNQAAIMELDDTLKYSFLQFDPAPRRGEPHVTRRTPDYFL
Stained slides were scanned using an APERIO AT2 (Leica) and the digital images imported into QuPath (Bankhead et al., 2017). TMA cores were analyzed for percentage of cells staining and intensity. In FIGS. 13E and F, higher visibility of the dark cell nuclei indicates weaker α-carboxymethylated PP2Ac staining.
The assembly of trimeric tumor-suppressive PP2A holoenzymes is promoted/facilitated by PP2Ac α-carboxymethylation. The PP2Ac α-carboxymethylation levels correlate positively with the levels of methylation-sensitive trimeric PP2A holoenzymes. A truly specific anti-methyl-PP2Ac antibody (7C10-C5) can be used to determine the α-carboxymethylated PP2Ac levels in normal and disease tissue by IHC analyses of tissue microarrays of cancer, normal tissues and tissues obtained from other disease states including but not limited to heart disease, Alzheimers disease, and diabetes. The PP2A methylation status in disease tissue can be graded using the Allred scoring system that scores the proportion of cells that stain by IHC as well as the intensity of the IHC staining. […] Allied scoring is calculated the following way: […]

Where [3] appears, read: IHC, mean±standard deviation, 12 samples.

B1: 7C10-C5: α-carboxymethylation specific mouse monoclonal IgG1 antibody from single clone hybridoma 7C10-C5 (DSM ACC3350) (antibody)
heavy: MYRMQLLSCIALSLALVTNSDVQLQESGPGLVKPSQSLSLTCSVTGYSITSGYYWNWIRQFPGNKLEWMGYISYDGSNNYNPSLKNRISITRDTSKNQFFLKLNSVTTEDTATYYCAGRFAYWGQGTLVTVSAAKTTAPSVYPLAPVCGDTTGSSVTLGCLVKGYFPEPVTLTWNSGSLSSGVHTFPAVLQSDLYTLSSSVTVTSSTWPSQSITCNVAHPASSTKVDKKIEPRGPTIKPCPPCKCPAPNLLGGPSVFIFPPKIKDVLMISLSPIVTCVVVDVSEDDPDVQISWFVNNVEVHTAQTQTHREDYNSTLRVVSALPIQHQDWMSGKEFKCKVNNKDLPAPIERTISKPKGSVRAPQVYVLPPPEEEMTKKQVTLTCMVTDFMPEDIYVEWTNNGKTELNYKNTEPVLDSDGSYFMYSKLRVEKKNWVERNSYSCSVVHEGLHNHHTTKSFSRTPGK
light: MDMRVPAQLLGLLLLWLSGARCDVLMTQTPLSLPVSLGDQASISCRSSQSIVHSNGNTYLEWYLQKPGQSPKLLIYKVSNRFSGVPDRFSGSGSGTDFTLKINRVEAEDLGVYYCFQGSHVPWTFGGGTKLEIKADAAPTVSIFPPSSEQLTSGGASVVCFLNNFYPKDINVKWKIDGSERQNGVLNSWTDQDSKDSTYSMSSTLTLTKDEYERHNSYTCEATHKTSTSPIVKSFNRNEC
modifications: Amino acid sequence of the recombinant 7C10-C5 heavy chain; Amino acid sequence of the recombinant 7C10-C5 light chain
As for B1, in test [1], the “carboxymethylated versus non-carboxymethylated PP6c peptide signal” value is reported as “No significant difference”. In test [2] (setting [3]), the “average Allred score, localized prostate cancer tissues” value amounted to 2.2±2.3 and the “average Allred score, metastatic prostate cancer tissues” value was found to be 0.4±1.4. Besides, the “discrimination between localized and metastatic prostate cancer by IHC staining” value in test [2] (tissue microarray, Allred score) was “significantly lower levels”.
